Consider one molecule from US6248520, “Nucleic acid molecules encoding nuclear hormone receptor coactivators and uses thereof” (The Rockefeller University, dated 2001).

The target in the assay is T1, human thyroid hormone receptor α (TRα-1), intact (human, UniProt P10827-2).
T1 sequence: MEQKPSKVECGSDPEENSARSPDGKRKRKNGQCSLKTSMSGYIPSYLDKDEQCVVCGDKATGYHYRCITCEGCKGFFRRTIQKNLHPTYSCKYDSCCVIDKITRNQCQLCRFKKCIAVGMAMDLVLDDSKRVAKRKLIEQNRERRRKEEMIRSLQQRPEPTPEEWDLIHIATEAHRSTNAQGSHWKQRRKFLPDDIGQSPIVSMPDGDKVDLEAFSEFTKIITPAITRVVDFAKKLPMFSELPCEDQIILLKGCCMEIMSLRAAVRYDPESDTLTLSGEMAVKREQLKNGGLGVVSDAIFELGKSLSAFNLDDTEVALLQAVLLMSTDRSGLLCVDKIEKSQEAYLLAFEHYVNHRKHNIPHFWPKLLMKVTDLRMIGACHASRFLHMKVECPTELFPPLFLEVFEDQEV
Description: Far Western: 35S-labelled TRα on blotted TR-TRAP complex (TRAP100 is one of the other TRAPs). The procedure: For coimmunoprecipitation (7), 2 μl of anti-FLAG M2 affinity gel (Kodak) and 3 μl of ^35S-labeled input proteins were used. For Far Western analyses, 500 ng of purified TR-TRAP complex was resolved by SDS-PAGE and transferred onto a nitrocellulose membrane. The blots were probed with in vitro translated, ^35S-labeled human TRα-1 or TRα-1 C-terminus (residues 122–410) in the presence and absence of 10^-7 M T_3.
Figure 7A: FIG. 7. Ligand-dependent interaction between TRα and TRAP220. (A) Far Western. 500 ng of purified TR-TRAP complex was separated by SDS-PAGE (8% gel), blotted and probed with ^35S-labeled full length (TR) and C-terminal (TRα-C) hTRα in the presence and absence of 10^-7 M […] (T_3). The arrow head indicates the position of the TRAP220 band. (B) Co-immunoprecipitation of TR-TRAP220 from in vitro translated products. The indicated combinations of ^35S-labeled TRAP220, TRAP100 and FLAG-TRα were incubated in the presence and absence of […] (T_3), and subjected to immunoprecipitation with anti-FLAG antibodies (M2 agarose) that recognizes only FLAG-tagged TRα. Figure 7B: Figure 8A: FIG. 8. Nuclear hormone receptor interactions with […] and TRAP100. (A) Ligand-dependent interactions of GST-TRAP220/1 and 2 with ^35S-labeled TRα. […]

B1: Thyroid Receptor-associated protein (TRAP) 100 (other)
chain: MKVVNLKQAILQAWKERWSDYQWAINMKKFFPKGATWDILNLADALLEQAMIGPSPNPLILSYLKYAISSQMVSYSSVLTAISKFDDFSRDLCVQALLDIMDMFCDRLSCHGKAEECIGLCRALLSALHWLLRCTAASAERLREGLEAGTPAAGEKQLAMCLQRLEKTLSSTKNRALLHIAKLEEASSWTAIEHSLLKLGEILANLSNPQLRSQAEQCGTLIRSIPTMLSVHAEQMHKTGFPTVHAVILLEGTMNLTGETQSLVEQLTMVKRMQHIPTPLFVLEIWKACFVGLIESPEGTEELKWTAFTFLKIPQVLVKLKKYSHGDKDFTEDVNCAFEFLLKLTPLLDKADQRCNCDCTNFLLQECGKQGLLSEASVNNLMAKRKADREHAPQQKSGENANIQPNIQLILRAEPTVTNILKTMDADHSKSPEGLLGVLGHMLSGKSLDLLLAAAAATGKLKSFARKFINLNEFTTYGSEESTKPASVRALLFDISFLMLCHVAQTYGSEVILSESRTGAEVPFFETWMQTCMPEEGKILNPDHPCFRPDSTKVESLVALLNNSSEMKLVQMKWHEACLSISAAILEILNAWENGVLAFESIQKITDNIKGKVCSLAVCAVAWLVAHVRMLGLDEREKSLQMIRQLAGPLFSENTLQFYNERVVIMNSILERMCADVLQQTATQIKFPSTGVDTMPYWNLLPPKRPIKEVLTDIFAKVLEKGWVDSRSIHIFDTLLHMGGVYWFCNNLIKELLKETRKEHTLRAVELLYSIFCLDMQQVTLVLLGHILPGLLTDSSKWHSLMDPPGTALAKLAVWCALSSYSSHKGQASTRQKKRHREDIEDYISLFPLDDVQPSKLMRLLSSNEDDANILSSPTDRSMSSSLSASQLHTVNMRDPLNRVLANLFLLISSILGSRTAGPHTQFVQWFMEECVDCLEQGGRGSVLQFMPFTTVSELVKVSAMSSPKVVLAITDLSLPLGRQVAAKAIAAL
On to B1, for which the binding result is “no binding”.
